Data on two molecules can be found in PMC9688808, “Discovery of Novel Lin28 Inhibitors to Suppress Cancer Cell Stemness” (Cancers, 2022).

The target of data set [1] is T1, Lin28B ZKD (Homo sapiens, UniProt Q6ZN17 110-174).
T1 sequence: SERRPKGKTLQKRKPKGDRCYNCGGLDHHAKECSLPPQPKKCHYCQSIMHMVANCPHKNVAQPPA
As to the kind of experiment: fluorescence polarization; 1 nM probe, 1 nM-50 uM protein; dose-dependent increase; EMSA: 20 mM HEPES-NaOH pH 7.4, 2 mM DTT, 3 mM MgCl2, 0.05% NP-40, protease inhibitors, 0.1 ug poly[dI:dC], 30 min 37 C (Methods 300 nM probe, legends 10 nM); FP: 30 uL, room temperature, 20 min, buffer not stated. Conditions: protein: recombinant; tags: His. Background: Fluorescence polarisation rises when a labelled molecule tumbles more slowly, as on binding a larger partner.

For data set [2], the target named is T1, Lin28B ZKD. As to the kind of experiment: competition; fluorescence polarization; 1 nM-50 uM unlabeled oligo vs 1 nM FAM probe, 10 uM protein; dose-dependent reduction; EMSA: 20 mM HEPES-NaOH pH 7.4, 2 mM DTT, 3 mM MgCl2, 0.05% NP-40, protease inhibitors, 0.1 ug poly[dI:dC], 30 min 37 C (Methods 300 nM probe, legends 10 nM); FP: 30 uL, room temperature, 20 min, buffer not stated. Particulars: protein: recombinant; tags: His. (Mobility shift assays separate free from complexed probe on a gel.)

As for UUAGGGCACGAGAUUUUGCCCACAAGGAGUU (structured_RNA) [FAM-Let-7 probe], in data set [1], the binding result is recorded as “binds”.
Take UUAGGGCACGAGAUUUUGCCCACAAGGAGUU (structured_RNA) [non-labeled Let-7 oligo (FP competitor)]: the binding result in data set [2] is “binds”.
